# Measured values published in patent US20090285799A1 (CSL, published 2009).
# Numbering of substitutions follows the chain as printed.
# B1: 8B4-IgG4 (antibody, V domains shown)
# VH: EVQVLESGGGLVQPGGSLRLSCAASGFTFSNYAMTWVRQAPGKGLEWVSTISGRGYSIYYADSVKGRFTISRDNSKNTVYLQMNSLRAEDTAVYYCAKEEGHWYFDVWGRGTLVTVSS
# VL: EIVLTQSPDFQSVTPKEKVTITCRASQSIGSSLHWYQQKPDQSPKLLIKYASQSFSGVPSRFSGSGSGTDFTLTINSLEAEDAAAYYCHQSSSLPYTFGQGTKLEIK
# notes: Recombinant full-length antibody of subclass IgG4 with kappa light chain (Lonza pCONGAMMA4/pCONKAPPA vectors), made in 293 cells
# B2: 8B4 (antibody, V domains shown)
# VH: B1 VH
# VL: B1 VL
# notes: Human monoclonal antibody purified from a hybridoma of HuMAb transgenic mice; also called PTA-6934
# B3: 8B4-74C (eotaxin assay) (antibody, V domains shown)
# VH: B1 VH
# VL: B1 VL with H89M, Q90S, S92L, S93G
# B4: 8B4-82 (eotaxin assay) (antibody, V domains shown)
# VH: B1 VH
# VL: B1 VL with H89A, Q90S, S92R, S93G
# B5: 8B4-21C (eotaxin assay) (antibody, V domains shown)
# VH: B1 VH
# VL: B1 VL with H89K, Q90S, S92A, S93G
# B6: 8B4-78M (optimized antibody, eotaxin assay) (antibody, V domains shown)
# VH: B1 VH
# VL: B1 VL with H89M, Q90S, S92M, S93G
# B7: 8B4-36 (eotaxin assay) (antibody, V domains shown)
# VH: B1 VH
# VL: B1 VL with H89V, Q90S, S92W, S93G
# B8: 6C11 (antibody, V domains shown)
# VH: B1 VH with S30N, M34L, Y104F
# VL: B1 VL
# notes: Human monoclonal antibody purified from a hybridoma of HuMAb transgenic mice; also called PTA-6930
# B9: 2B6 (antibody, V domains shown)
# VH: QVQLVESGGGVVQPGRSLRLSCAASGFTFSYYGMHWVRQAPGKGLEWVAFIWYDGSNKYYEDSVKGRFTISRDNSKNTLYLQMNSLRAEDTAVYYCARVAAAGAVEYFQHWGQGTLVTVSS
# VL: AIQLTQSPSSLSASVGDRVTITCRASQVISSVLAWYQQKSGKGPKLLIYDASSLESGVPSRFSGSGSGTDFTLTISSLQPEDFATYYCQQFNSYPLTFGGGTKVEIK
# notes: Human monoclonal antibody purified from a hybridoma of HuMAb transgenic mice; also called PTA-6932; 2136
# B10: 8B4-18C-IgG4 (antibody, V domains shown)
# VH: B1 VH
# VL: B1 VL with H89M, Q90N, S92L, S93G
# notes: Full-length IgG4, kappa
# B11: 8B4-78M-IgG4 (antibody, V domains shown)
# VH: B1 VH
# VL: B1 VL with H89M, Q90S, S92M, S93G
# notes: Full-length IgG4, kappa
# B12: 8B4 (Fab) (Fab, V domains shown)
# VH: B1 VH
# VL: B1 VL
# notes: Fab format from vector pFab3d
# B13: 8B4-82 (Fab) (Fab, V domains shown)
# VH: B1 VH
# VL: B1 VL with H89A, Q90S, S92R, S93G
# notes: Fab format; only CDR3s were mutated
# B14: 8B4-21C (Fab) (Fab, V domains shown)
# VH: B1 VH
# VL: B1 VL with H89K, Q90S, S92A, S93G
# notes: as for B13
# B15: 8B4-80C (Fab) (Fab, V domains shown)
# VH: B1 VH
# VL: B1 VL with H89M, Q90S, S92W, S93G
# notes: as for B13
# B16: 8B4-18C (Fab) (Fab, V domains shown)
# VH: B1 VH
# VL: B1 VL with H89M, Q90N, S92L, S93G
# notes: as for B13
# B17: 8B4-78M (Fab) (Fab, V domains shown)
# VH: B1 VH
# VL: B1 VL with H89M, Q90S, S92M, S93G
# notes: as for B13
# B18: 8B4-74C (Fab) (Fab, V domains shown)
# VH: B1 VH
# VL: B1 VL with H89M, Q90S, S92L, S93G
# notes: as for B13
# B19: 8B4-36 (Fab) (Fab, V domains shown)
# VH: B1 VH
# VL: B1 VL with H89V, Q90S, S92W, S93G
# notes: as for B13
# Biological target: T1, human IL-13Rα1 on normal human dermal fibroblast (NHDF) cells (human, UniProt P78552 27-427)
# T1 sequence: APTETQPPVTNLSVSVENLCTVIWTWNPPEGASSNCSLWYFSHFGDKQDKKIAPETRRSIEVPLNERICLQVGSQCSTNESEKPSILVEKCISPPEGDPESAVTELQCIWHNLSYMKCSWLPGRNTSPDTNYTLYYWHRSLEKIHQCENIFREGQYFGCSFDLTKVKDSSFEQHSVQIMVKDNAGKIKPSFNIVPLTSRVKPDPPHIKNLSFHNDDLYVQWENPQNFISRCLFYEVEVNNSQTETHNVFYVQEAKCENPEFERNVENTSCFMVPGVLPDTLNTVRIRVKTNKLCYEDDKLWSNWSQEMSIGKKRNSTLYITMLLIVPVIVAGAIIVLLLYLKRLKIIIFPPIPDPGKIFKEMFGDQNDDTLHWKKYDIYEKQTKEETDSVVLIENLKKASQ
# Experiment: cell-based or functional assay
Binder,inhibition of eotaxin release from NHDF cells upon stimulation with IL-13 (IC50) [mg/L],NHDF IL-13-induced STAT6 phosphorylation (EC50) [mg/L]
B1,~1,
B2,,~2.9
B3,0.1,
B4,1.31,
B5,0.75,
B6,~0.1,
B7,0.17,
B8,,3.8
B9,,7

# Biological target: T2, IL-13Rα1 on whole blood cells or PBMCs (TARC release assay)
# T2 sequence (P78552 whole entry, species assumed, looked up): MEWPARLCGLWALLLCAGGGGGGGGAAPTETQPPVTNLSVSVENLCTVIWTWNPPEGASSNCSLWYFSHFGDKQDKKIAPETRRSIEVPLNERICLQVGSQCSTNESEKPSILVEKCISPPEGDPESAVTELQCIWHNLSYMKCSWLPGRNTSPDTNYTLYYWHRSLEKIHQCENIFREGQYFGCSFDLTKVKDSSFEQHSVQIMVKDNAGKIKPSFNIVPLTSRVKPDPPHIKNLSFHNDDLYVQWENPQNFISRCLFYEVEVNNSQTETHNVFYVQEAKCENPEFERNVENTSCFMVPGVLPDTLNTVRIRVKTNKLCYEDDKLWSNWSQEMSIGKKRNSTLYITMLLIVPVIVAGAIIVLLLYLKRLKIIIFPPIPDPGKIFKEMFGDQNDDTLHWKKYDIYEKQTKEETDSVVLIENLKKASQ
# Experiment: cell-based or functional assay
row,Binder,IL-13-stimulated TARC release in whole blood or PBMCs (IC50) [mg/L]
1,B2,~2.6
2,B8,2.5

# Biological target: T1, human IL-13Rα1 on normal human dermal …
# Experiment: cell-based or functional assay
# Remark: another data set of the same source
row,Binder,NHDF cells IL-13 Eotaxin release (IC50) [on average] [mg/L]
1,B2,1
2,B8,9.7
3,B9,3.5

# Biological target: T3, hIL-13Rα1.ECR (N-terminal FLAG-tagged fusion protein of the extracellular region of human IL-13Rα1) (human, UniProt P78552 29-343)
# T3 construct: also called human IL-13Rα1.ECR; hIL-13Rα1 extracellular domain
# T3 sequence: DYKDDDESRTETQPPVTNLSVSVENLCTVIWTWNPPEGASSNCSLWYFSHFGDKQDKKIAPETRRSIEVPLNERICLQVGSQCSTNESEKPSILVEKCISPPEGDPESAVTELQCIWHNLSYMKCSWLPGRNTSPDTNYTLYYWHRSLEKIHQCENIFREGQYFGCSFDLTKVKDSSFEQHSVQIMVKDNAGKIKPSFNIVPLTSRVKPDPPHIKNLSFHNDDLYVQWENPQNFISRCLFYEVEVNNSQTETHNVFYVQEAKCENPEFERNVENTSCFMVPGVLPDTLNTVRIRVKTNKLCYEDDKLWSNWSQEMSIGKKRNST
# Experiment: ELISA on plate-bound hIL-13Rα1.ECR
row,Binder,Kd [nM]
1,B2,0.267
2,B8,0.087
3,B9,0.36

# Biological target: T3, hIL-13Rα1.ECR (N-terminal FLAG-tagged …)
# Experiment: KINEXA kinetic exclusion assay, full-length IgG4
row,Binder,Kd [nM]
1,B1,0.68
2,B10,0.051
3,B11,0.038

# Biological target: T3, hIL-13Rα1.ECR (N-terminal FLAG-tagged …)
# Experiment: BIACORE SPR, chip-bound hIL-13Rα1 extracellular domain, Fab format
row,Binder,Kd [nM]
1,B12,2.15
2,B13,0.073
3,B14,0.17
4,B15,0.25
5,B16,0.085
6,B17,0.049
7,B18,0.045
8,B19,0.085

# Biological target: T3, hIL-13Rα1.ECR (N-terminal FLAG-tagged …)
# Experiment: BIACORE SPR, hIL-13Rα1.ECR immobilized on CM5 chip, antibody as analyte, bivalent model
# Experimental: BIACORE-Based Studies. Human IL-13Rα1.ECR (40 μg/ml in 20 mM Sodium Acetate, pH 4.2) of Example 1 was immobilized to a sensorchip (CM5, Biosensor, Sweden) using standard NHS/EDC chemistry according to the manufacturer's instructions at a set immobilization value, for example, 1000RU. Ethanolamine (1.0 M) pH 8.0 was used to quench residual active esters post hIL-13Rα1.ECR immobilization.
# Analysis of binding of antibody (concentration range of 1.4 nM to 150 nM, two-fold dilutions) to the immobilized hIL-13Rα1. ECR was performed in duplicate. Sensorgrams generated were fitted to a bivalent ligand binding model to simultaneously derive association (kₐ) and dissociation (kd) rates and used to determine binding affinity (KD, Biaevaluation software, BIACORE™, Sweden).
row,Binder,Kd [nM]
1,B2,4.6
2,B8,2.1
3,B9,16.5
